We go through 2 compounds from article PMC9373814, “3p-C-NETA: A versatile and effective chelator for development of Al^18F-labeled and therapeutic radiopharmaceuticals” (Theranostics, 2022).

Bounds are passed on as bounds.

The target in data set [1] is T1, SSTR2 (Rattus norvegicus, UniProt P30680).
T1 construct: from tissue; host or cells: female Wistar rats in vivo (adrenals, pituitary, pancreas)
The arrangement: method as in PMID 31997090. The settings on record: naïve rats, 2 h p.i.; cited from earlier work.

Data set [2] has as its system T2, SSTR2.
T2 construct: from tissue; host or cells: female Wistar rats in vivo (adrenals, pituitary, pancreas)
Briefly: in vivo. As to conditions: female, Wistar, rat, iv, total radioactivity. The procedure:
Dynamic PET scans were performed on a small animal PET/MR scanner based on previously reported protocol. Briefly, female Wistar rats (208-231 g) were anaesthetized with a 5% isoflurane/ oxygen mixture before being maintained at 1-2% isoflurane/1 L/minute throughout the experiment. Rats tail veins were cannulated before being placed in the imaging cell (Bruker Biospin) which was then placed into the scanner; temperature and respiration were monitored throughout the scanning via a physiological monitoring system (SA Instruments, Stony Brook, NY, USA). Rats were injected with [^18F]AlF-3p-C-NETA-TATE (5.5-18.5 MBq, apparent molar activity 22 ± 8 GBq/μmol) at the start of the PET acquisition in presence or absence of octreotide acetate (2.5 mg/kg co-injection with radiopharmaceutical; blocking scans were performed the following day in the same animals). 75 min scans were carried out with the pituitary to kidneys in the PET FOV, during which respiration-gated 3D spin-echo MRI (TurboRARE sequence, TR = 500 mseconds (ms), TE = 18.8 ms, RARE factor = 8, FOV 14x6x6 cm, isotropic resolution of 0.5 mm) images were acquired with a quadrature radio-frequency resonator (transmit/receive, 86 mm internal diameter, Bruker Biospin). PET and MRI scans were then repeated at 100-120 minutes with the animal in the same position. Dynamic PET data were divided into timeframes (4×15 s, 1×240 s, 7×600 s) with corrections for decay, randoms, scatter and deadtime and then reconstructed using an MLEM algorithm with 24 iterations and an isotropic voxel size of 0.5 mm. PET images were normalized to injected activity and animal weight to give standardized uptake values (SUV), and selected organs were outlined to create volumes of interest after coregistration with MR images of which SUVmean values are reported; a circular VOI was placed over the splenic division of the pancreas (as visualised via tracer uptake and mapped to the blocked scan) to determine pancreatic uptake. All image analysis was carried out using the PFUSIT module of PMOD (v 4.004, PMOD Technologies Ltd., Zurich, Switzerland). Quantitative data are expressed as mean ± standard error of the mean (SEM).

T1 sequence (P30680 whole entry): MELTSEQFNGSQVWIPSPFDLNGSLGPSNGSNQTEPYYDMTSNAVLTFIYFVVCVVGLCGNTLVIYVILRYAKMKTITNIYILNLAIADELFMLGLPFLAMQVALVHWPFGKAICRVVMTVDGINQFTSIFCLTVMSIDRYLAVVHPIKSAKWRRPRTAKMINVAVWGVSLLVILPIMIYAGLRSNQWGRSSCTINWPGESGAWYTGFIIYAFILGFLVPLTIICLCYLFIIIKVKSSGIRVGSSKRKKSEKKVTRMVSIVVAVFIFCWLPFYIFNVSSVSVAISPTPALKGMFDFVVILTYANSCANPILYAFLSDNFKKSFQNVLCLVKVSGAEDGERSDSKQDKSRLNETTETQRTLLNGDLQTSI

In the case of [^18F]AlF-NOTA-Octreotide, the “SUV bone uptake in the spine” value with SSTR2 [1] was 0.45 ± 0.03.
Turning to `C[C@@H](O)[C@H](NC(=O)[C@@H]1CSSC[C@H](NC(=O)[C@@H](Cc2ccccc2)NC(=O)CCC(=O)Nc2ccc(CCCC(CN3CCN(CC(=O)O)CCN(CC(=O)O)CC3)N(CC(=O)O)CC(=O)O)cc2)C(=O)N[C@@H](Cc2ccc(O)cc2)C(=O)N[C@H](Cc2c[nH]c3ccccc23)C(=O)N[C@@H](CCCCN)C(=O)N[C@@H]([C@@H](C)O)C(=O)N1)C(=O)O` (stereo partly drawn) [[^18F]AlF-3p-C-NETA-TATE], the SUV at 1.25 h in the data set with SSTR2 [2] (2.5 mg/kg, SUV adrenals) came out at 0.24 ± 0.03 SUV; in the data set on SSTR2 [2] (2.5 mg/kg, SUV pancreas), 0.34 ± 0.2 SUV; with SSTR2 [2] (2.5 mg/kg, SUV pituitary), 0.2 ± 0.04 SUV; with SSTR2 [2] (SUV adrenals), 1.2 ± 0.59 SUV; with SSTR2 [2] (SUV pancreas) it was 7.78 ± 4.26 SUV; with SSTR2 [2] (SUV pituitary), 0.93 ± 0.34 SUV. The SUV at 2 h is 0.18 ± 0.04 SUV with SSTR2 [2] (2.5 mg/kg, SUV adrenals); 0.31 ± 0.07 SUV in the data set with SSTR2 [2] (2.5 mg/kg, SUV pancreas); 0.21 ± 0.06 SUV in the data set with SSTR2 [2] (2.5 mg/kg, SUV pituitary); 1.22 ± 0.65 SUV with SSTR2 [2] (SUV adrenals); under 0.6 SUV with SSTR2 [2] (SUV blood and non-SSTR2 expressing organs); 0.43 ± 0.25 SUV in the data set with SSTR2 [2] (SUV bone uptake in the spine). For the same compound, the figures for the SUV at 2 h in the data set with SSTR2 [2] (SUV pancreas) and in the data set on SSTR2 [2] (SUV pituitary) were 8.35 ± 5.07 SUV and 0.93 ± 0.36 SUV, respectively.
